The target in one data set is T1, SsArd1 (Saccharolobus solfataricus, UniProt Q980R9).
T1 construct: gene ard1; pET28a, C-terminal His6-tag, expressed in E. coli BL21(DE3); monomer
Briefly: X-ray crystal structure, […] Å. The format is binding. The settings on record: co-crystallised binary complex; CoA also in ternary complex with peptide.

Data set [1] has as its target T2, Sulfolobus solfataricus Ard1 (SsArd1), wild type (Sulfolobus solfataricus, UniProt Q980R9 1-167).
T2 construct: N-alpha-acetyltransferase Ard1 of Sulfolobus solfataricus (NatA family); one molecule in the asymmetric unit; also called wild-type SsArd1; source: E. coli BL21 (DE3), purified (Ni-Sepharose, size-exclusion chromatography)
T2 sequence: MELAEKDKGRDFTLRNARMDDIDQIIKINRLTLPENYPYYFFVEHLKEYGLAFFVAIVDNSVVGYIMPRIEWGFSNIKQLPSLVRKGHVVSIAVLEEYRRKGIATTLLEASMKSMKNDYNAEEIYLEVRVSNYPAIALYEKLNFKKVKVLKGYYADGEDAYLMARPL
Put plainly: crystal structure; SsArd1-CoA crystals soaked with 2 mM Alba peptide (SSGTPT), dehydrated over 12.5% w/v PEG 4,000; ternary SsArd1-CoA/peptide complex at 1.84 Å. The settings on record: both partners purified.

In data set [2] the target is T3, SsArd1 E35V mutant (Sulfolobus solfataricus) (UniProt Q980R9).
T3 sequence: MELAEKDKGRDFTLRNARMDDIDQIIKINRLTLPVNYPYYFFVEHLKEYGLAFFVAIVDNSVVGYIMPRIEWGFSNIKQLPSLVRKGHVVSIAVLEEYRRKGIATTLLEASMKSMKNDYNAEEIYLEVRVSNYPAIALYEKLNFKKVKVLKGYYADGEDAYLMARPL

Data set [3] deals with T4, SsArd1 E35F mutant (Sulfolobus solfataricus) (UniProt Q980R9).
T4 sequence: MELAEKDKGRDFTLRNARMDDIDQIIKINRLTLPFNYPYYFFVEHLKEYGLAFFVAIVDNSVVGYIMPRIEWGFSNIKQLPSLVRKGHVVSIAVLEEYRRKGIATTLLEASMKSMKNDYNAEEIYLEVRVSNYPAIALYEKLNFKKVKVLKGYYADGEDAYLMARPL

The target in data set [4] is T5, SsArd1 E35A mutant (Sulfolobus solfataricus) (UniProt Q980R9).
T5 sequence: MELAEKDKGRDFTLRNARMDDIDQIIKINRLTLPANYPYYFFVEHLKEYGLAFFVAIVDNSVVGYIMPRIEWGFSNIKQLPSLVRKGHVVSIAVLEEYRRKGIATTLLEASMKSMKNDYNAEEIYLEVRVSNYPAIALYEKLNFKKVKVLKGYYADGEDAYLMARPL

Substrate in data set [5]: CC(=O)SCCNC(=O)CCNC(=O)[C@H](O)C(C)(C)COP(=O)(O)OP(=O)(O)OC[C@H]1O[C@@H](n2cnc3c(N)ncnc32)[C@H](O)[C@@H]1OP(=O)(O)O
Put plainly: Ellman (DTNB) acetyltransferase assay, Michaelis-Menten fit. Type of data set: biochemical, Saccharolobus solfataricus. The settings on record: saturating Alba peptide (SSGTPT), pH 8.0, 65°C. The text has this:
Ellman (DTNB) acetyltransferase assay, Michaelis-Menten fit on SsArd1
Background: In Ellman's method for cholinesterases, released thiocholine reacts with DTNB.

The mark [6] stands for this setting: mutant given as R132A in Table 3, N132A in text.

One may read the Km as the substrate concentration at which the rate is half of its maximum. In general, kcat refers to the maximal rate divided by the concentration of active sites. A word on the kcat/Km: it is the turnover number divided by the Michaelis constant.

On to `CC(C)(COP(=O)(O)OP(=O)(O)OC[C@H]1O[C@@H](n2cnc3c(N)ncnc32)[C@H](O)[C@@H]1OP(=O)(O)O)[C@@H](O)C(=O)NCCC(=O)NCCS` [CoA], for which, at SsArd1, the “X-ray crystal structure, 2.13 Å” value was 4R3K for SsArd1-CoA and 4R3L for SsArd1-CoA/peptide.

B1: Alba peptide (SSGTPT), N-terminal 6-mer of the chromatin protein Alba (peptide)
peptide: SSGTPT
notes: N-terminal 6 residues of Alba of Sulfolobus solfataricus, which has Ser at its N-terminus; Only the first 2 residues are seen in the electron density of the ternary complex; also called Alba substrate peptide; 6-mer Alba peptide; source: synthetic peptide (GenScript)
On to B1, for which, in data set [1], the binding result is reported as “binds”.

With AAKKRG [Hjc peptide (AAKKRG), N-terminal 6-mer of the Holliday junction-resolving enzyme Hjc], the acetyltransferase activity with the Hjc substrate peptide, against wild-type SsArd1 and the E35A mutant in data set [2] and in data set [3] was 2 fold throughout.

For MEEKVG [SSB peptide (MEEKVG), N-terminal 6-mer of the single-stranded DNA-binding protein SSB], the acetyltransferase activity with the SSB substrate peptide, against wild-type SsArd1 in data set [2] was 5 fold; in data set [4], 8 fold.

B2: SsArd1 (Saccharolobus solfataricus P2) (protein)
chain: MELAEKDKGRDFTLRNARMDDIDQIIKINRLTLPENYPYYFFVEHLKEYGLAFFVAIVDNSVVGYIMPRIEWGFSNIKQLPSLVRKGHVVSIAVLEEYRRKGIATTLLEASMKSMKNDYNAEEIYLEVRVSNYPAIALYEKLNFKKVKVLKGYYADGEDAYLMARPL
notes: pET28a, C-terminal His6-tag, expressed in E. coli BL21(DE3); monomer
With B2, in data set [5], the Km was 67.17 ± 7.48 µM, the kcat is 0.5595 ± 0.0275 s⁻¹ and the kcat/Km came to 8370 M⁻¹ s⁻¹.

B3: SsArd1 (Saccharolobus solfataricus P2; T105A) (protein)
chain: MELAEKDKGRDFTLRNARMDDIDQIIKINRLTLPENYPYYFFVEHLKEYGLAFFVAIVDNSVVGYIMPRIEWGFSNIKQLPSLVRKGHVVSIAVLEEYRRKGIAATLLEASMKSMKNDYNAEEIYLEVRVSNYPAIALYEKLNFKKVKVLKGYYADGEDAYLMARPL
notes: as for B2
Turning to B3, in data set [5], the Km amounted to 195.89 ± 12.27 µM, the turnover number (kcat) is 0.5818 ± 0.0205 s⁻¹ and the kcat/Km worked out at 2970 M⁻¹ s⁻¹.

B4: SsArd1 (Saccharolobus solfataricus P2; R100A) (protein)
chain: MELAEKDKGRDFTLRNARMDDIDQIIKINRLTLPENYPYYFFVEHLKEYGLAFFVAIVDNSVVGYIMPRIEWGFSNIKQLPSLVRKGHVVSIAVLEEYRAKGIATTLLEASMKSMKNDYNAEEIYLEVRVSNYPAIALYEKLNFKKVKVLKGYYADGEDAYLMARPL
notes: as for B2
With B4, in data set [5], the Km turned out to be 466.98 ± 50.83 µM, the catalytic constant (kcat) came to 0.4783 ± 0.0448 s⁻¹ and the kcat/Km is 1020 M⁻¹ s⁻¹.

B5: SsArd1 (Saccharolobus solfataricus P2; N132A) (protein)
chain: MELAEKDKGRDFTLRNARMDDIDQIIKINRLTLPENYPYYFFVEHLKEYGLAFFVAIVDNSVVGYIMPRIEWGFSNIKQLPSLVRKGHVVSIAVLEEYRRKGIATTLLEASMKSMKNDYNAEEIYLEVRVSAYPAIALYEKLNFKKVKVLKGYYADGEDAYLMARPL
notes: as for B2
For the molecule B5, in data set [5] (setting [6]), the Km was determined as 279.37 ± 75.86 µM, the catalytic constant (kcat) is 0.556 ± 0.0647 s⁻¹ and the kcat/Km stood at 2050 M⁻¹ s⁻¹.

The record behind these values is PMC5390088, “Structural Basis for Substrate-specific Acetylation of Nα-acetyltransferase Ard1 from Sulfolobus solfataricus” (Scientific Reports, 2015).
